Molecular target: T1, S03933
T1 chain: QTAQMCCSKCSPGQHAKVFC
Assay: linear peptide ELISA; Affinity +
Details: remark: other sources report otherwise

Reading: 0.1
B1: antagonistic TNFR2 antibody TNFRAB1 (antibody, V domains shown)
VH: EVQLQESGGGLVKPGGSLKLSCAASGFTFSSYVMSWVRQTPEKRLEWVATISSGGSYTYYPDSVKGRFTISRDNAKNTLYLQMSSLRSEDTAMYYCARQRVDGYSSYWYFDVWGAGTAVTVSS
VL: DIVLTQSPAIMSASPGEKVTITCSASSSVYYMYWFQQKPGTSPKLWIYSTSNLASGVPVRFSGSGSGTSYSLTISRMEAEDAATYYCQQRRNYPYTFGGGTKLEIKRA

— patent publication US20240270860A1
